PMC7319778

Molecular target: human toll-like receptor 4 (TLR4) on HEK293 cells expressing human TLR4-MD2-CD14 (human) (UniProt O00206)
Assay: flow cytometry on cells

Chain of UniProt O00206 (O00206 24-839): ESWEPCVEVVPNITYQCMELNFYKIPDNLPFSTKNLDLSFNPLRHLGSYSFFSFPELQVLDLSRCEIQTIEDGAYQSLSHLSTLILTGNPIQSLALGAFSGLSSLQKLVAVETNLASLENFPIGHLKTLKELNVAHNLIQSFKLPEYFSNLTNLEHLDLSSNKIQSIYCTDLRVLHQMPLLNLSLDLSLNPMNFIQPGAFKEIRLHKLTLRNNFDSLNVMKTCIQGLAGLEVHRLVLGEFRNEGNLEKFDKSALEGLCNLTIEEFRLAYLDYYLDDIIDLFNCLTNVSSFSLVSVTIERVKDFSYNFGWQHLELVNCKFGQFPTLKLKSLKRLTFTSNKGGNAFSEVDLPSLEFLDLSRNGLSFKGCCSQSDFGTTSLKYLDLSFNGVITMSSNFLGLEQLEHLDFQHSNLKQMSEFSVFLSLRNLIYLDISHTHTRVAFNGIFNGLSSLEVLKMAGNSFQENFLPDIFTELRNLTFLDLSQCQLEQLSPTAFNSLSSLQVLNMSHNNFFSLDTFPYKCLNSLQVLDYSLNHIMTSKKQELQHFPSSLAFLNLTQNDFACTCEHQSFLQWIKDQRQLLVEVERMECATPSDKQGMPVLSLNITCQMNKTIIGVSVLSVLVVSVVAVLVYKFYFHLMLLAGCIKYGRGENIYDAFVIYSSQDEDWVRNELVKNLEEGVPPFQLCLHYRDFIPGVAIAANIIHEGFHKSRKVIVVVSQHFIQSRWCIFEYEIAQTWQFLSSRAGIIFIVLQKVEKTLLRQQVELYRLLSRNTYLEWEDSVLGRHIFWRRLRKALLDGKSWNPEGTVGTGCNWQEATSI

Substance	level of fluorescence (percent, flow cytometry) [%]	TLR4-binding capacity (percent, flow cytometry) [%]
hEDA-HPVE7-16 fusion protein (human extra domain A from fibronectin fused to E7 protein from HPV16)	19.5	–
hEDA-HPVE7-16/18 fusion protein (human extra domain A from fibronectin fused to E7 proteins from HPV16 and HPV18)	–	36.9
mEDA-HPVE7-16 fusion protein (extra domain A from murine fibronectin fused to E7 protein from HPV16)	–	40.2
